Earlier results, collected in PMC8070256, “Feasibility of Developing Radiotracers for MDM2: Synthesis and Preliminary Evaluation of an ^18F-Labeled Analogue of the MDM2 Inhibitor SP-141” (Pharmaceuticals, 2021).

Target: MDM2 (Homo sapiens) (UniProt Q00987)
Sequence (Q00987 whole entry): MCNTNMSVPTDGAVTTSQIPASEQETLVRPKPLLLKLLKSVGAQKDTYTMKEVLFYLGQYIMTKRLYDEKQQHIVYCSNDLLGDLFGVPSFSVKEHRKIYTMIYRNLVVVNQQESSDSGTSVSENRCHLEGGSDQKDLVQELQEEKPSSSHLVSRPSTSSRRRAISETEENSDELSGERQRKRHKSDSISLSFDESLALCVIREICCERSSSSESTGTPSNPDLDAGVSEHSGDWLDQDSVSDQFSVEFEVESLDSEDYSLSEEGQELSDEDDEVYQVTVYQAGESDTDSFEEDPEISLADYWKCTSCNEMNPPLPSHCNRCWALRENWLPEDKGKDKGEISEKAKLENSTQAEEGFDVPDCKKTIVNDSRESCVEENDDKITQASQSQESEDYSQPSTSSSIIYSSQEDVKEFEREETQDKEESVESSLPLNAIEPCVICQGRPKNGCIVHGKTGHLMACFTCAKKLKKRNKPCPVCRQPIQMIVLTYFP

Ki: 1100 nM
Substance: p53 peptide (from UniProt P04637)
